# Assay results published in patent US20090053213A1.
# What was measured:
# [1] = target: human GM-CSF (human) (UniProt P04141); assay: cell-based or functional assay
# [2] = target: macaca mulatta (rhesus) GM-CSF (Macaca mulatta (rhesus)); assay: cell-based or functional assay
# [3] = target: human GM-CSF (human) (UniProt P04141); assay: FACS receptor inhibition assay: inhibition of binding of 0.5 µg/ml biotinylated GM-CSF to GM-CSF receptor alpha on CHO-GMRa#11 cells
# [4] = target: human GM-CSF receptor alpha chain (human) (UniProt P15509); assay: FACS on CHO-GMRa#11 cells, MAB1006 at 1 µg/ml, R-PE anti-mouse secondary, FL2 channel
# Chain of human GM-CSF receptor alpha chain (human) (P15509 23-400): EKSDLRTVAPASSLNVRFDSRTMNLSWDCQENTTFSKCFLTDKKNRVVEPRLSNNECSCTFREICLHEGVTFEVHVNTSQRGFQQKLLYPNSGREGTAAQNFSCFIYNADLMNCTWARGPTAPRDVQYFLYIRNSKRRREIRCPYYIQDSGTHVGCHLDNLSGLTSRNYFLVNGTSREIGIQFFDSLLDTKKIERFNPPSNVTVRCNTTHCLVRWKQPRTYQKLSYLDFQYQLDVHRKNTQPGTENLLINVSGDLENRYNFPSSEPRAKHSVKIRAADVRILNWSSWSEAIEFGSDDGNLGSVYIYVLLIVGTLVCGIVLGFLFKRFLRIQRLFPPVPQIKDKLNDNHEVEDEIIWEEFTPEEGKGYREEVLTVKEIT
# Chain of human GM-CSF (human) (P04141 18-144): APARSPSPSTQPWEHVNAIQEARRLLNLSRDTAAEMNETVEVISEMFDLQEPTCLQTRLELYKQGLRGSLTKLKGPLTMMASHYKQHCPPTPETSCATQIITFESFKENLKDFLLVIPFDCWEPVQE
"IC50 (pM) in TF-1 proliferation assay, human GM-CSF 0.25 ng/ml [1] [pM]","IC50 (pM) in TF-1 proliferation assay, human GM-CSF (E. coli) [1] [pM]","IC50 (pM) in TF-1 proliferation assay, human GM-CSF (HEK293) [1] [pM]","IC50 x-fold improved compared to BVD2-21C11, TF-1 proliferation assay [1] [fold]","IC50 (pM) in TF-1 proliferation assay, macaca GM-CSF (HEK293) [2] [pM]",% inhibition at 5 µg/ml antibody [3] [%],median fluorescence value (MFL value) [4],Substance
4320,625,54,1.5,190,50,–,MAB215 (antibody)
–,–,–,–,–,–,157,murine IgG MAB1006 (antibody)
